Data on 4 molecules can be found in patent US20090111753A1, “Nogo-A Polypeptide Fragments, Variant Nogo Receptor-1 Polypeptides, and Uses Thereof” (Yale University, priority 2004, published 2009).

The test system of one assay is NgR ligands. In words: Binding of alanine substituted NgR mutants to NgR ligands, summary categories. The settings on record: AP-Nogo66, AP-B4C, AP-B4C66, AP-Lingo-1, AP-OMgp and AP-MAG; compared to wild type NgR. From the text: (§1) To better define how multiple ligands bind to the NgR protein, we examined a series of Ala-substituted NgR for ligand binding activity. NgR mutagenesis was done using the Quick Change Multisite Directed Mutagenesis Kit (Stratagene catalog #200514). Human NgR1 was used as a template. Ala substitutions were generated for each of the charged residues predicted to be solvent accessible at the surface of the ligand binding domain of NgR (Barton, W. A., et al., Embo J. 22:3291-3302 (2003); He, X. L., et al., Neuron 38:177-185 (2003)). We generated mutants in which 1-8 surface residues localized within 5 A of one another were Ala-substituted. Because of the coiling nature of the LRR structure, as residues juxtaposed on the protein surface are commonly separated by approximately 25 residues in the primary structure. In addition to mutations in specific charged surface patches, other mutations were targeted to glycosylation sites and to regions predicted to be involved in ligand binding based on the NgR structure (Barton, W. A., et al., Embo J. 22:3291-3302 (2003); He, X. L., et al., Neuron 38:177-185 (2003)). In addition, a variant corresponding to a human polymorphism was examined (D259N). None of the mutations altered the Leu residues that define the LRR structure itself or the Cys residues critical in the amino and carboxyl terminal capping domains. The vast majority of such Ala surface substitution mutants were expressed as immunoreactive polypeptides with a molecular weight and an expression level indistinguishable from wild type NgR (FIG. 4C and data not shown).
(§2) This collection of 74 individual NgR mutants was interrogated for AP-Nogo-66, AP-Amino-Nogo-B4C, AP-MAG, AP-OMgp, and AP-Lingo-1 binding. AP-Nogo66, AP-MAG, AP-OMGP and AP-Lingo-1 constructs are described elsewhere (Fournier, A. E., et al., Nature 409:341-346 (2001); Liu, B. P., et al., Science 297:1190-1193 (2002); Mi, S., et al., Nat. Neurosci. 7:221-228 (2004); Wang, K. C., et al., Nature 417:941-944 (2002b)). The properties of the NgR mutants fell into one of three major categories (Table II and FIG. 5). A number of Ala substituted NgR polypeptides bound all of the ligands at wild type levels. […] In addition, a significant extent of the concave surface is dispensable for ligand binding.
Alanine substituted NgR mutants were tested for their binding to AP-Nogo66, AP-B4C, AP-B4C66, AP-Lingo-1, AP-OMgp and AP-MAG and they fall into three categories: (1) Mutants that lose binding to all NgR ligands. (2) Mutants that still maintain binding to all NgR ligands. […] The D259N mutant is an asparagine substitution to mimic a human polymorphism.

A further assay concerns the target T1, AP-Nogo66 (Homo sapiens, UniProt Q9NQC3).
T1 construct: made in house; NgR mutants: COS-7
T1 sequence (Q9NQC3 1055-1120 limits assumed): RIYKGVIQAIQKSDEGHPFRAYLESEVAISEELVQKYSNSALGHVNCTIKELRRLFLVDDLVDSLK
In words: Binding of AP-Nogo66 to COS-7 cells expressing NgR mutants. The settings on record: AP-Ng66 5 nM; level of binding compared to wild type NgR. More on the design: key: ++: WT level; +: weaker than wild type; trace binding; −: no binding. As for the experimental part: (§3) FIG. 4A. […] Binding of AP or AP fused NgR ligands to COS-7 cells expressing different NgR mutants as indicated. The concentrations of ligands applied were: AP, 30 nM; AP-Ng66, 5 nM; AP-Ng33, 10 nM; AP-B4C, 10 nM; AP-B4C66, 0.5 nM; AP-Lingo-1, 10 nM; AP-OMGP, 10 nM; AP-MAG, 30 nM. These concentrations are close to the binding Kd of these proteins to NgR so that any […] is reflected linearly in staining.
(§4) FIG. 4B. AP binding of NgR ligands to NgR mutants expressed as percentage of wild type NgR. AP after incubation with AP fused ligands, AP bound to COS-7 cells expressing NgR or NgR mutants were stained and measured.
as §1, §2
(§5) Binding of Alanine substituted NgR mutants to NgR ligands were compared to wild type NgR and the levels of binding were categorized as ++ (WT level), + (weaker than wild type), tr (trace binding), − (no binding), N/A (not determined). NgR mutant proteins were also subjected to SDS-PAGE and probed by anti-NgR antibodies. Mutants with expression level similar to WT NgR were labeled as “y”.

The next assay addresses T2, AP-B4C (Homo sapiens, UniProt Q9NQC3).
T2 construct: a.a; 950-1018 (AmNg B4C); made in house; host or cells: AP ligand: HEK293T conditioned medium; NgR mutants: COS-7
T2 sequence (Q9NQC3 950-1018): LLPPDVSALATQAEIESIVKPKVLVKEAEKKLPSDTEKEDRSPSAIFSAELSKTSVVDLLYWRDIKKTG
In words: Binding of AP-B4C to COS-7 cells expressing NgR mutants. The settings on record: AP-B4C 10 nM; level of binding compared to wild type NgR. More on the design: key: ++: WT level; +: weaker than wild type; trace binding; −: no binding. As for the experimental part:
as §3, §4, §1, §2, §5

Another assay has as its system AP-B4C66. In words: Binding of AP-B4C66 to COS-7 cells expressing NgR mutants. On the set-up: key: ++: WT level; +: weaker than wild type; trace binding; −: no binding. The settings on record: AP-B4C66 0.5 nM; level of binding compared to wild type NgR. Here is the method:
as §3, §4, §1, §2, §5

The next assay deals with T3, AP-Lingo-1 (Homo sapiens, UniProt Q96FE5).
T3 construct: made in house; NgR mutants: COS-7
T3 sequence (Q96FE5 40-538 limits assumed): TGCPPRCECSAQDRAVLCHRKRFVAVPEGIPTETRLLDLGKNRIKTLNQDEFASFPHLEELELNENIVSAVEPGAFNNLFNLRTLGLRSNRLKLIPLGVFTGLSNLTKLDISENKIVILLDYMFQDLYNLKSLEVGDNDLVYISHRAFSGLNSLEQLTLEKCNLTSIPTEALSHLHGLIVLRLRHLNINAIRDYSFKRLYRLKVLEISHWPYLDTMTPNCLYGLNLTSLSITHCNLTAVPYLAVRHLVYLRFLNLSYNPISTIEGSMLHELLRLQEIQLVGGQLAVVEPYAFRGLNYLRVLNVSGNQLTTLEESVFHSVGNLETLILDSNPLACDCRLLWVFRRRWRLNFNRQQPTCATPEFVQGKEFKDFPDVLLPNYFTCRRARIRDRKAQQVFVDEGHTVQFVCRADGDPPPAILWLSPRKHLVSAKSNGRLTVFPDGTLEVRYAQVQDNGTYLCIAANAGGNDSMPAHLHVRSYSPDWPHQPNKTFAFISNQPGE
In words: Binding of AP-Lingo-1 to COS-7 cells expressing NgR mutants. On the set-up: key: ++: WT level; +: weaker than wild type; trace binding; −: no binding. The settings on record: AP-Lingo-1 10 nM; level of binding compared to wild type NgR. As for the experimental part:
as §3, §4, §1, §2, §5

A further assay deals with AP-OMgp. In words: Binding of AP-OMgp to COS-7 cells expressing NgR mutants. More on the design: key: ++: WT level; +: weaker than wild type; trace binding; −: no binding. The settings on record: AP-OMGP 10 nM; level of binding compared to wild type NgR. As for the experimental part:
as §3, §4, §1, §2, §5

A further assay relates to AP-MAG. In words: Binding of AP-MAG to COS-7 cells expressing NgR mutants. On the set-up: key: ++: WT level; +: weaker than wild type; trace binding; −: no binding. The settings on record: AP-MAG 30 nM; level of binding compared to wild type NgR. As for the experimental part: as §3, §4, §1, §2, §5

B1: 95, 97, 122: human NgR1 mutant, listed residues mutated to alanine (protein)
chain: CPGACVCYNEPKVTTSCPQQGLQAVPVGIPAASQRIFLHGNRISHVPAASFRACRNLTILWLHSNVLAAIAAAAFTGLALLEQLDLSDNAQLRSVAPATFHGLGRLHTLHLDRCGLQELGPGLFRGLAALQYLYLQDNALQALPDDTFRDLGNLTHLFLHGNRISSVPERAFRGLHSLDRLLLHQNRVAHVHPHAFRDLGRLMTLYLFANNLSALPTEALAPLRALQYLRLNDNPWVCDCRARPLWAWLQKFRGSSSEVPCSLPQRLAGRDLKRLAANDLQGCAVATGPYHPIWTGRATDEEPLGLPKCCQPDAADKASVLEPGRPASAGNALKGRVPPGDSPPGNGSGPRHINDSPFGTLPGSAEPPLTAVRPEGSEPPGFPTSGPRRRPGCSRKNRTRSHCRLGQAGSGGGGTGDSEGSGALPSLTCSLTPLGLALVLWTVLGPC
As to B1, the “ligand binding category of NgR mutant (Table II)” value (“ligand binding category” for short) in the assay with NgR ligands is given as “Differential binding”. For the same molecule, in the assay with AP-Nogo66, the Ng66 entry is listed as “+”. Further, the B4C entry in the assay with AP-B4C is “+”. The B4C-66 entry in the assay on AP-B4C66 is given as “+”. Besides, the Lingo-1 entry with AP-Lingo-1 is “−”. The OMgp entry in the assay on AP-OMgp was “tr”. In addition, the MAG result with AP-MAG is “tr”.

B2: 216, 218, 220: human NgR1 mutant, listed residues mutated to alanine (protein)
chain: CPGACVCYNEPKVTTSCPQQGLQAVPVGIPAASQRIFLHGNRISHVPAASFRACRNLTILWLHSNVLARIDAAAFTGLALLEQLDLSDNAQLRSVDPATFHGLGRLHTLHLDRCGLQELGPGLFRGLAALQYLYLQDNALQALPDDTFRDLGNLTHLFLHGNRISSVPERAFRGLHSLDRLLLHQNRVAAVAPAAFRDLGRLMTLYLFANNLSALPTEALAPLRALQYLRLNDNPWVCDCRARPLWAWLQKFRGSSSEVPCSLPQRLAGRDLKRLAANDLQGCAVATGPYHPIWTGRATDEEPLGLPKCCQPDAADKASVLEPGRPASAGNALKGRVPPGDSPPGNGSGPRHINDSPFGTLPGSAEPPLTAVRPEGSEPPGFPTSGPRRRPGCSRKNRTRSHCRLGQAGSGGGGTGDSEGSGALPSLTCSLTPLGLALVLWTVLGPC
Regarding B2, in the assay on NgR ligands, the “ligand binding category” value is “Differential binding”. Further, the Ng66 entry with AP-Nogo66 was “++”. The B4C entry with AP-B4C was “++”. Moreover, the B4C-66 entry in the assay on AP-B4C66 is “++”. Also, the Lingo-1 result with AP-Lingo-1 is listed as “+”. Besides, the OMgp result with AP-OMgp is reported as “+”. Further, the MAG entry with AP-MAG is listed as “tr”.

B3: 117, 119, 120: human NgR1 mutant, listed residues mutated to alanine (protein)
chain: CPGACVCYNEPKVTTSCPQQGLQAVPVGIPAASQRIFLHGNRISHVPAASFRACRNLTILWLHSNVLARIDAAAFTGLALLEQLDLSDNAALAAVDPATFHGLGRLHTLHLDRCGLQELGPGLFRGLAALQYLYLQDNALQALPDDTFRDLGNLTHLFLHGNRISSVPERAFRGLHSLDRLLLHQNRVAHVHPHAFRDLGRLMTLYLFANNLSALPTEALAPLRALQYLRLNDNPWVCDCRARPLWAWLQKFRGSSSEVPCSLPQRLAGRDLKRLAANDLQGCAVATGPYHPIWTGRATDEEPLGLPKCCQPDAADKASVLEPGRPASAGNALKGRVPPGDSPPGNGSGPRHINDSPFGTLPGSAEPPLTAVRPEGSEPPGFPTSGPRRRPGCSRKNRTRSHCRLGQAGSGGGGTGDSEGSGALPSLTCSLTPLGLALVLWTVLGPC
Regarding B3, in the assay on NgR ligands, the “ligand binding category” value is “Differential binding”. Also, in the assay with AP-Nogo66, the Ng66 entry is given as “++”. The B4C result in the assay with AP-B4C is given as “++”. Also, the B4C-66 entry in the assay with AP-B4C66 was “++”. In addition, in the assay with AP-Lingo-1, the Lingo-1 result was “tr”. In addition, the OMgp result in the assay on AP-OMgp was “tr”. Further, the MAG result with AP-MAG was “−”.

B4: 114, 117, 139: human NgR1 mutant, listed residues mutated to alanine (protein)
chain: CPGACVCYNEPKVTTSCPQQGLQAVPVGIPAASQRIFLHGNRISHVPAASFRACRNLTILWLHSNVLARIDAAAFTGLALLEQLDLSANAALRSVDPATFHGLGRLHTLHLDACGLQELGPGLFRGLAALQYLYLQDNALQALPDDTFRDLGNLTHLFLHGNRISSVPERAFRGLHSLDRLLLHQNRVAHVHPHAFRDLGRLMTLYLFANNLSALPTEALAPLRALQYLRLNDNPWVCDCRARPLWAWLQKFRGSSSEVPCSLPQRLAGRDLKRLAANDLQGCAVATGPYHPIWTGRATDEEPLGLPKCCQPDAADKASVLEPGRPASAGNALKGRVPPGDSPPGNGSGPRHINDSPFGTLPGSAEPPLTAVRPEGSEPPGFPTSGPRRRPGCSRKNRTRSHCRLGQAGSGGGGTGDSEGSGALPSLTCSLTPLGLALVLWTVLGPC
B4: in the assay with NgR ligands, the “ligand binding category” value is “Differential binding”. For the same molecule, the Ng66 result with AP-Nogo66 was “+”. Besides, the B4C entry with AP-B4C is recorded as “+”. The B4C-66 entry in the assay with AP-B4C66 is listed as “+”. In the assay with AP-Lingo-1, the Lingo-1 result was “−”. For the same molecule, in the assay on AP-OMgp, the OMgp result is “−”. For the same molecule, the MAG result in the assay with AP-MAG was “−”.
